Assays:
Assay in all cases: biotin-peptide pull-down, MUDPIT mass spectrometry
SCAF4 = SCAF4 (UniProt O95104)
RPRD2 = RPRD2 (UniProt Q5VT52)
SCAF8 = SCAF8 (UniProt Q9UPN6)
RPRD1B = RPRD1B (UniProt Q9NQG5)
[1] = reference: unphosphorylated CTD peptide, sites S2
[2] = reference: pS2-CTD peptide, sites Y1
[3] = reference: unphosphorylated CTD peptide, sites Y1
[4] = reference: unphosphorylated CTD peptide, sites S5

## RNA polymerase II largest subunit (Rpb1) C-terminal repeated domain (CTD) (from UniProt P24928) pS2-CTD peptide
SCAF4; [1]
  other: number of peptides identified: gained; reference 0
RPRD2; [1]
  other: number of peptides identified: gained; reference 0
SCAF8; [1]
  other: number of peptides identified: gained; reference 0
RPRD1B; [1]
  other: number of peptides identified: gained; reference 0

## RNA polymerase II largest subunit (Rpb1) C-terminal repeated domain (CTD) (from UniProt P24928) pY1pS2-CTD peptide
SCAF4; [2]
  other: number of peptides identified: weaker; reference 12
RPRD2; [2]
  other: number of peptides identified: weaker; reference 63
SCAF8; [2]
  other: number of peptides identified: lost; reference 17
RPRD1B; [2]
  other: number of peptides identified: weaker; reference 40

## RNA polymerase II largest subunit (Rpb1) C-terminal repeated domain (CTD) (from UniProt P24928) pY1-CTD peptide
SCAF4; [3]
  other: number of peptides identified: none in both; reference 0
RPRD2; [3]
  other: number of peptides identified: none in both; reference 0
SCAF8; [3]
  other: number of peptides identified: none in both; reference 0
RPRD1B; [3]
  other: number of peptides identified: none in both; reference 0

## RNA polymerase II largest subunit (Rpb1) C-terminal repeated domain (CTD) (from UniProt P24928) pS5-CTD peptide
SCAF4; [4]
  other: number of peptides identified: none in both; reference 0
RPRD2; [4]
  other: number of peptides identified: none in both; reference 0
SCAF8; [4]
  other: number of peptides identified: none in both; reference 0
RPRD1B; [4]
  other: number of peptides identified: none in both; reference 0

From PMC4627417
